Source: the supplement of paper PMC6757056
± gives the standard deviation of the averaged measurements.

B1: library; a variant is named by its letters at N, in order (parent)
chain: GCUGUCACCGGUGUAUUACCCUAGUGGUCGACCGGUCUGAUGAGUCUNNNNNNAGACGAAACAGC

Legend:
hypoxanthine [1] = variants of: B1; test: normalized RNA/DNA level with ligand (relative to sTRSVctl = 100) (log10 (% of sTRSVctl)); ligand: hypoxanthine (xanthine aptamer); higher = less ribozyme self-cleavage, higher mRNA level; conditions: ligand concentration (+) RNA-Seq: 5 mM, HEK293T, reporter: mCherry (pCS4076), ligand present: yes
Method in brief: (§1)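 HEK293T cells were transfected with library plasmids carrying ribozyme switches linked to an mCherry reporter, or an eGFP reporter in some ligand experiments, at 4 µg per well of a 6-well plate, with any ligand added 1 h beforehand. After 72 h, total RNA was extracted with EDTA, reverse-transcribed, amplified, barcoded and sequenced. RNA level was defined as RNA reads over DNA reads, normalized to a spiked-in non-cleaving sequence or to the top-ranked sequences. That value was multiplied by 100 and converted to log10, the top set was 25 sequences, and only sequences with ≥100 DNA reads were retained.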

hypoxanthine [2] = variants of: B1; test: normalized RNA/DNA level without ligand (relative to sTRSVctl = 100) (log10 (% of sTRSVctl)); ligand: hypoxanthine (xanthine aptamer); higher = less ribozyme self-cleavage, higher mRNA level; conditions: HEK293T, reporter: mCherry (pCS4076), ligand present: no
Method in brief: as §1

hypoxanthine [3] = variants of: B1; test: FACS-Seq fitted mean relative fluorescence mCherry/BFP without ligand (log10 relative fluorescence); ligand: hypoxanthine (xanthine aptamer); higher = higher reporter protein expression; conditions: HEK293T, ligand present: no
Method in brief: (§2)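 Fluorescence is reported as a normalized fitted mean of sorted-bin read counts. Lentivirally transduced HEK293T libraries (mCherry ribozyme-switch reporter, EF1α-BFP marker) were enriched, treated with or without ligand for 48 h, and sorted into 6 mCherry/BFP bins for MiSeq sequencing of PCR-amplified genomic DNA. The normal fit was on log10(mCherry/BFP), scaled to five spiked-in control ribozymes.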

hypoxanthine [4] = variants of: B1; test: FACS-Seq fitted mean relative fluorescence mCherry/BFP with ligand (log10 relative fluorescence); ligand: hypoxanthine (xanthine aptamer); ligand concentration (+) FACS-Seq: 5 mM; higher = higher reporter protein expression; conditions: HEK293T, ligand present: yes
Method in brief: as §2

ACAAUC
normalized RNA/DNA level with ligand (log10) (hypoxanthine [1]): 1.9924 ± 0.0011 | normalized RNA/DNA level without ligand (log10) (hypoxanthine [2]): 1.93 ± 0.025

CUCGAC
normalized RNA/DNA level with ligand (log10) (hypoxanthine [1]): 1.96 ± 0.023 | normalized RNA/DNA level without ligand (log10) (hypoxanthine [2]): 1.808 ± 0.017

UUUCAU
normalized RNA/DNA level with ligand (log10) (hypoxanthine [1]): 1.915 ± 0.013 | normalized RNA/DNA level without ligand (log10) (hypoxanthine [2]): 1.838 ± 0.0065

CGCGCG
normalized RNA/DNA level with ligand (log10) (hypoxanthine [1]): 1.9548 ± 0.00063 | normalized RNA/DNA level without ligand (log10) (hypoxanthine [2]): 1.78 ± 0.035

ACUGGG
normalized RNA/DNA level with ligand (log10) (hypoxanthine [1]): 1.859 ± 0.0034 | normalized RNA/DNA level without ligand (log10) (hypoxanthine [2]): 1.44 ± 0.086

UGUGGC
normalized RNA/DNA level with ligand (log10) (hypoxanthine [1]): 1.99 ± 0.04 | normalized RNA/DNA level without ligand (log10) (hypoxanthine [2]): 1.8784 ± 0.00098

GCCUGG
normalized RNA/DNA level with ligand (log10) (hypoxanthine [1]): 1.94 ± 0.062 | normalized RNA/DNA level without ligand (log10) (hypoxanthine [2]): 1.5 ± 0.017

GCCGUG
normalized RNA/DNA level with ligand (log10) (hypoxanthine [1]): 1.91 ± 0.025 | normalized RNA/DNA level without ligand (log10) (hypoxanthine [2]): 1.48 ± 0.036

AGUAUC
normalized RNA/DNA level with ligand (log10) (hypoxanthine [1]): 1.96 ± 0.044 | normalized RNA/DNA level without ligand (log10) (hypoxanthine [2]): 1.931 ± 0.013

CUACUU
normalized RNA/DNA level with ligand (log10) (hypoxanthine [1]): 1.99 ± 0.028 | normalized RNA/DNA level without ligand (log10) (hypoxanthine [2]): 1.83 ± 0.026

AAGACU
normalized RNA/DNA level with ligand (log10) (hypoxanthine [1]): 1.95 ± 0.064 | normalized RNA/DNA level without ligand (log10) (hypoxanthine [2]): 1.856 ± 0.0071

GGCUCG
normalized RNA/DNA level with ligand (log10) (hypoxanthine [1]): 1.98 ± 0.027 | normalized RNA/DNA level without ligand (log10) (hypoxanthine [2]): 1.834 ± 0.012

GAGCGU
normalized RNA/DNA level with ligand (log10) (hypoxanthine [1]): 1.915 ± 0.0047 | normalized RNA/DNA level without ligand (log10) (hypoxanthine [2]): 1.647 ± 0.0019

AUGCAC
normalized RNA/DNA level with ligand (log10) (hypoxanthine [1]): 1.91 ± 0.12 | normalized RNA/DNA level without ligand (log10) (hypoxanthine [2]): 1.74 ± 0.034

CGUUAC
normalized RNA/DNA level with ligand (log10) (hypoxanthine [1]): 1.91 ± 0.082 | normalized RNA/DNA level without ligand (log10) (hypoxanthine [2]): 1.717 ± 0.0087

CCACCU
normalized RNA/DNA level with ligand (log10) (hypoxanthine [1]): 2.033 ± 0.0077 | normalized RNA/DNA level without ligand (log10) (hypoxanthine [2]): 1.93 ± 0.053

UAAGUA
normalized RNA/DNA level with ligand (log10) (hypoxanthine [1]): 1.89 ± 0.041 | normalized RNA/DNA level without ligand (log10) (hypoxanthine [2]): 1.8797 ± 0.00095

ACCCCU
normalized RNA/DNA level with ligand (log10) (hypoxanthine [1]): 1.967 ± 0.0051 | normalized RNA/DNA level without ligand (log10) (hypoxanthine [2]): 1.892 ± 0.0077

UAUUUG
normalized RNA/DNA level with ligand (log10) (hypoxanthine [1]): 1.93 ± 0.039 | normalized RNA/DNA level without ligand (log10) (hypoxanthine [2]): 1.78 ± 0.026

CCUUAA
normalized RNA/DNA level with ligand (log10) (hypoxanthine [1]): 1.96 ± 0.034 | normalized RNA/DNA level without ligand (log10) (hypoxanthine [2]): 1.85 ± 0.038

UUAACA
normalized RNA/DNA level with ligand (log10) (hypoxanthine [1]): 1.93 ± 0.059 | normalized RNA/DNA level without ligand (log10) (hypoxanthine [2]): 1.9 ± 0.0046

CUACAG
normalized RNA/DNA level with ligand (log10) (hypoxanthine [1]): 1.91 ± 0.028 | normalized RNA/DNA level without ligand (log10) (hypoxanthine [2]): 1.73 ± 0.039

CUUAUU
normalized RNA/DNA level with ligand (log10) (hypoxanthine [1]): 1.95 ± 0.047 | normalized RNA/DNA level without ligand (log10) (hypoxanthine [2]): 1.872 ± 0.005

UUGCUC
normalized RNA/DNA level with ligand (log10) (hypoxanthine [1]): 2.061 ± 0.0057 | normalized RNA/DNA level without ligand (log10) (hypoxanthine [2]): 1.9913 ± 0.0008

UCGCUG
normalized RNA/DNA level with ligand (log10) (hypoxanthine [1]): 1.98 ± 0.069 | normalized RNA/DNA level without ligand (log10) (hypoxanthine [2]): 1.803 ± 0.0034

UUAUAA
normalized RNA/DNA level with ligand (log10) (hypoxanthine [1]): 1.92 ± 0.0059 | normalized RNA/DNA level without ligand (log10) (hypoxanthine [2]): 1.76 ± 0.041

GCCAUA
FACS-Seq fitted mean (log10) (hypoxanthine [3]): 0.231 ± 0.083 | normalized RNA/DNA level with ligand (log10) (hypoxanthine [1]): 1.95 ± 0.049 | normalized RNA/DNA level without ligand (log10) (hypoxanthine [2]): 1.85 ± 0.079 | FACS-Seq fitted mean (log10) (hypoxanthine [4]): 0.487 ± 0.0075

AAGCAC
normalized RNA/DNA level with ligand (log10) (hypoxanthine [1]): 1.89 ± 0.027 | normalized RNA/DNA level without ligand (log10) (hypoxanthine [2]): 1.69 ± 0.047

CGGCGA
normalized RNA/DNA level with ligand (log10) (hypoxanthine [1]): 1.95 ± 0.029 | normalized RNA/DNA level without ligand (log10) (hypoxanthine [2]): 1.743 ± 0.017

UUUCUG
normalized RNA/DNA level with ligand (log10) (hypoxanthine [1]): 1.942 ± 0.009 | normalized RNA/DNA level without ligand (log10) (hypoxanthine [2]): 1.77 ± 0.026

GCCCGU
normalized RNA/DNA level with ligand (log10) (hypoxanthine [1]): 1.962 ± 0.019 | normalized RNA/DNA level without ligand (log10) (hypoxanthine [2]): 1.83 ± 0.044

UAAGCC
normalized RNA/DNA level with ligand (log10) (hypoxanthine [1]): 1.9849 ± 0.0019 | normalized RNA/DNA level without ligand (log10) (hypoxanthine [2]): 1.876 ± 0.015

AGGUUC
normalized RNA/DNA level with ligand (log10) (hypoxanthine [1]): 1.939 ± 0.0087 | normalized RNA/DNA level without ligand (log10) (hypoxanthine [2]): 1.83 ± 0.026

UCGUCG
normalized RNA/DNA level with ligand (log10) (hypoxanthine [1]): 1.99 ± 0.042 | normalized RNA/DNA level without ligand (log10) (hypoxanthine [2]): 1.85 ± 0.049

UCGUCU
normalized RNA/DNA level with ligand (log10) (hypoxanthine [1]): 1.93 ± 0.049 | normalized RNA/DNA level without ligand (log10) (hypoxanthine [2]): 1.87 ± 0.062

CGAUAU
normalized RNA/DNA level with ligand (log10) (hypoxanthine [1]): 1.911 ± 0.0083 | normalized RNA/DNA level without ligand (log10) (hypoxanthine [2]): 1.74 ± 0.024

ACCGUU
normalized RNA/DNA level with ligand (log10) (hypoxanthine [1]): 1.91 ± 0.06 | normalized RNA/DNA level without ligand (log10) (hypoxanthine [2]): 1.835 ± 0.011

UUCGCC
normalized RNA/DNA level with ligand (log10) (hypoxanthine [1]): 1.95 ± 0.046 | normalized RNA/DNA level without ligand (log10) (hypoxanthine [2]): 1.856 ± 0.015

GCCUCC
normalized RNA/DNA level with ligand (log10) (hypoxanthine [1]): 1.95 ± 0.043 | normalized RNA/DNA level without ligand (log10) (hypoxanthine [2]): 1.95 ± 0.023

CAGCCC
normalized RNA/DNA level with ligand (log10) (hypoxanthine [1]): 2.03 ± 0.052 | normalized RNA/DNA level without ligand (log10) (hypoxanthine [2]): 1.94 ± 0.023

UCCGGC
normalized RNA/DNA level with ligand (log10) (hypoxanthine [1]): 2.019 ± 0.0041 | normalized RNA/DNA level without ligand (log10) (hypoxanthine [2]): 1.85 ± 0.056

GGCACA
normalized RNA/DNA level with ligand (log10) (hypoxanthine [1]): 1.885 ± 0.002 | normalized RNA/DNA level without ligand (log10) (hypoxanthine [2]): 1.86 ± 0.03

CAACUG
normalized RNA/DNA level with ligand (log10) (hypoxanthine [1]): 1.9 ± 0.045 | normalized RNA/DNA level without ligand (log10) (hypoxanthine [2]): 1.84 ± 0.022

ACUUCU
normalized RNA/DNA level with ligand (log10) (hypoxanthine [1]): 1.91 ± 0.12 | normalized RNA/DNA level without ligand (log10) (hypoxanthine [2]): 1.889 ± 0.0063

CACAAU
normalized RNA/DNA level with ligand (log10) (hypoxanthine [1]): 1.89 ± 0.053 | normalized RNA/DNA level without ligand (log10) (hypoxanthine [2]): 1.78 ± 0.034

GCCGCC
normalized RNA/DNA level with ligand (log10) (hypoxanthine [1]): 1.99 ± 0.068 | normalized RNA/DNA level without ligand (log10) (hypoxanthine [2]): 1.81 ± 0.1

CUAGAG
normalized RNA/DNA level with ligand (log10) (hypoxanthine [1]): 1.88 ± 0.018 | normalized RNA/DNA level without ligand (log10) (hypoxanthine [2]): 1.64 ± 0.023

CUUUUG
normalized RNA/DNA level with ligand (log10) (hypoxanthine [1]): 1.95 ± 0.042 | normalized RNA/DNA level without ligand (log10) (hypoxanthine [2]): 1.89 ± 0.078

AAAACA
FACS-Seq fitted mean (log10) (hypoxanthine [3]): 0.709 ± 0.064 | normalized RNA/DNA level with ligand (log10) (hypoxanthine [1]): 1.897 ± 0.015 | normalized RNA/DNA level without ligand (log10) (hypoxanthine [2]): 1.804 ± 0.015 | FACS-Seq fitted mean (log10) (hypoxanthine [4]): 0.65 ± 0.023

UGGGGC
normalized RNA/DNA level with ligand (log10) (hypoxanthine [1]): 1.99 ± 0.025 | normalized RNA/DNA level without ligand (log10) (hypoxanthine [2]): 1.94 ± 0.0063

CUGCGU
normalized RNA/DNA level with ligand (log10) (hypoxanthine [1]): 1.954 ± 0.013 | normalized RNA/DNA level without ligand (log10) (hypoxanthine [2]): 1.93 ± 0.021

GGACCC
normalized RNA/DNA level with ligand (log10) (hypoxanthine [1]): 1.96 ± 0.065 | normalized RNA/DNA level without ligand (log10) (hypoxanthine [2]): 1.93 ± 0.023

AAUCAA
normalized RNA/DNA level with ligand (log10) (hypoxanthine [1]): 1.89 ± 0.066 | normalized RNA/DNA level without ligand (log10) (hypoxanthine [2]): 1.75 ± 0.068

GCGAAG
FACS-Seq fitted mean (log10) (hypoxanthine [3]): -0.383 ± 0.014 | normalized RNA/DNA level with ligand (log10) (hypoxanthine [1]): 1.46 ± 0.12 | normalized RNA/DNA level without ligand (log10) (hypoxanthine [2]): 0.925 ± 0.14 | FACS-Seq fitted mean (log10) (hypoxanthine [4]): 0.417 ± 0.06

UUCAGC
normalized RNA/DNA level with ligand (log10) (hypoxanthine [1]): 1.94 ± 0.026 | normalized RNA/DNA level without ligand (log10) (hypoxanthine [2]): 1.93 ± 0.02

GUUAUA
normalized RNA/DNA level with ligand (log10) (hypoxanthine [1]): 1.881 ± 0.0041 | normalized RNA/DNA level without ligand (log10) (hypoxanthine [2]): 1.83 ± 0.025
